# Data reported in the nanobody polyreactivity screen of Harvey et al. (2022).
# Assay: yeast display, Sf9 membrane polyspecificity reagent, FACS + sequencing; frameworks hold sequencing errors
# Procedure, shortened: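 Galactose induction of a Saccharomyces cerevisiae BJ5465 synthetic nanobody display library ran 36–48 hours. The cells were then stained for 1 hour at 4 °C with 10% biotinylated, detergent-solubilized Sf9 membrane reagent, pulled down on streptavidin microbeads and FACS-sorted into low and high (top ~1%) gates on expression and reagent-binding fluorescence. Labels for polyreactivity follow the gate of origin.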
row,Sequence,polyreactivity (PSR sort gate)
1,QVQLVESGGGLVQAGGSLRLTCAASGYTFRRTGMGWYRQAPGKERELVAAITNGGSTKYADSVKGRYTISRDNAKNTVYLQMNSLKPEDTAVYDCFYYVYAYDYWGQGTQVTLSS,high polyreactivity
2,QVQLVESGGGLVQAGGSLRLTCAATGSILSRYAMGWYRLAPGKERELVATITRRGGSTFYADSVKGRFTISRDIAKNTVYLQMNSLKPEDTAVYYCAVGRLFWGQGTQVTVSS,low polyreactivity
3,QVQLVESGGGLVQAGGSLRLTCADTGNIFVRNAMGWYRQAPGKERELVADISTGADTNYADSVKGRFTISRDNAKNTFYLQKNSLKPEDTAVYYCAAAAEVGEIGYWPMVYWGQVTQVTVSS,high polyreactivity
4,QVQLVESGGGLVQAGGSLRLTCDASGFTFPFYTMGWYRQEPGKERELVAAISASGGRTYYADSVKGRFTISRDNAKNTVYLQMNSLKPEDTGVYYCATYPTPKYFRWRGDYWGQGTQVTVSS,high polyreactivity
5,QVQLVESGGGLVQAGGSLRLTCDASGSTFYPYAMGWYRQAPWKERELVAAISSRDGRTYYADSVKGRFTISRDNAKNTVYLQMNSLKPEDTAVYYCAATSFNNGHRYDYWGQGTQVTVSS,high polyreactivity
6,QVQLVESGGGLVQAGGSLRLTCSASGYTFPRYAMGWYRQAPGKERELVAVITRRGGSTYYADSVKGRFTISRDNAKNTVYLQMNSLKPEDTSVYYCAASDPSNKSSRPGYSYDSDSWGQGTQVTVSS,high polyreactivity
7,QVQLVESGGGLVQAGGSLRLTFAASGRTFGYYAMGWSRQAPGKEREWVAAISWSGTSTYYADSVKGRFTISRDNAKNTVYLQLNSLKPEDTAVYYCNAVNVAVQWTSRYYYWGHGTQVTVSS,high polyreactivity
8,QVQLVESGGGLVQAGGSLRLTSAASGRIFSHNAMGWCRPAPGKERELVAAITVGGGSTFYADSVKGRFTISRDNAKNTVYLQMNSLKPEDTAVYYCAADYYTQWQTRYDYWGQGTQVTVSS,low polyreactivity
9,QVQLVESGGGLVQAGGSLRLTWAASGSTYESNAMGWYRPAPGKERELVAAISSSGGSTYYADSVKGRFTITRDNAKNTVYLQMNSLKPEDTAVYYGNKGGLSDYDYWGQGTQVTVSS,high polyreactivity
10,QVQLVESGGGLVQAGGSLRSSCAASGYTFRYYAMGWSRQAPGKERELVAAITSSSNTTYADSVKGRFTISRDNEKNTVYLQMNSLKPDDTGVYYCNTPYFTGYYWGQGTQVTVSS,high polyreactivity
11,QVQLVESGGGLVQAGGSLRVSCAASGFIFCGYARGWYRQAPGKERELDAAISSSGGSTYYADSVKGRFTISRDNAKNTDYLQMNSLKPEDTAVYYCAKVGRSRRYYYWGQGTQVTVSS,high polyreactivity
12,QVQLVESGGGLVQAGGSLRVSCAASGFIFHYYAMGWYRQAPGKERELVAAITYSGGSTYYADSVKGRFTISRDNAKNTVYLQMNSMKPVDTAVYYCNADSVLDLYWNMDYWGQVTQVTVSS,low polyreactivity
13,QVQLVESGGGLVQAGGSLRVSCAASGFIFLNNAMGWYRQAPGKERELVAAITWSGGSTYYADSVKGRFTISRDNAKNTVYLQMKSLKPEDTAVYYCAADGWLYYGVGYWGQGTQVTVSS,low polyreactivity
14,QVQLVESGGGLVQAGGSLRVSCAASGFTFDQYAMGWYRQAPGKERELVAAISWSGASTYYADSVKGRFTISRDNAKNTDDLQMNSLKPEDTAVYYCAVSRRRIDYDYWGQGTQVTVSS,high polyreactivity
15,QVQLVESGGGLVQAGGSLRVSCAASGFTFRHNAMGWYRQAPGKERELVAVISSTGTYADSVKGRFTISRDNAKNTVYLQMNSLKPEDTAVYYCAAGSDYGGSYAYDYWGQGTQVTVSS,low polyreactivity
16,QVQLVESGGGLVQAGGSLRVSCAASGFTFTRYTMGWYRQAPGKEWELVAAITRSGGNTYYADSVKGRFTISRDNAKNTVYLQMNSLKPEDTAVYYCAARQVSGIGPYDYWGQGTQVTVSS,high polyreactivity
17,QVQLVESGGGLVQAGGSLRVSCAASGNIFVYNAMGWYRQAPGKERELVAAIDSGGSTYYADSVKGRFTISRDNAKNTVYLQMNSLKPEDTAVYYCAADYYSTYRTIYYYWGQGTQVTVSS,low polyreactivity
18,QVQLVESGGGLVQAGGSLRVSCAASGRIFRYTSGWYRQAPAKERELVATINSCGRTYYADSVKGRFTISRDNAKNTVYLQRNCLKPEDTAVYFCAAPYQTKCNKYVHGSPIENDYWGQGTQVTVSS,low polyreactivity
19,QVQLVESGGGLVQAGGSLRVSCAASGRTFSGYTMGWYRQAPGKERELVATIRDRGGSTYYADSVKGRFTISRDNAKNTVYLQMNSLTPEDTAVYYCAARRGRRYYYWGQATQVTVSS,high polyreactivity
20,QVQLVESGGGLVQAGGSLRVSCAASGRTFYANVRGWYRQAPGKERELGAAIAASGGSTYYADSVKGRVTISRDNAKNTVYLQMNRLKPEDTAGYYCYKVVRWPGTYLRYVISDLDYWGQGSQVTVSS,low polyreactivity
21,QVQLVESGGGLVQAGGSLRVSCAASGRTFYRKAMGWYRHAPGKERSLVAAISSGGSTTYADSVKGRFTISRDNAKNTVYLQMISLKPEDTAVYYCAARSHAGSVCPRLKEYDFWGQGTQVTVSS,low polyreactivity

row,Sequence,polyreactivity (PSR sort gate)
1,QVQLVESGGGLVQAGGSLRVSCAASGSIFDVYTMGWYRQAPGKERELVAAISKRSGRTYYADSVKGRFTISRDNAKNTVYLQMNSLKPEDTAVYYCAKDFGYWGQGTQVTVSS,low polyreactivity
2,QVQLVESGGGLVQAGGSLRVSCAASGSIFPDNAMGWYRQAPGKERELVAAITRGGSTYYADSVKGRFTISRDNAKNTVYLQMNSLKPEDTAVYYCAARRRYLWSYDYWGQGTQVTVSS,high polyreactivity
3,QVQLVESGGGLVQAGGSLRVSCAASGSIFYQYAMGWYRQAPGKERELVAAISTTGGRTYYADSVKGRFTISRDNAKNTVYLQMNSLKPEDTAVYYCAAYKYYGYDYWGQGTQVTVSS,high polyreactivity
4,QVQLVESGGGLVQAGGSLRVSCAASGSTFASYAMGWSRQAAGKVWEFVAAICRSGGSTYYADSVKGRFTISRDNAKNTVSFQMNSREPEDPAVYYWAKSRYDYTIPEGGYWGQGTQATVSS,low polyreactivity
5,QVQLVESGGGLVQAGGSLRVSCAASGYFFHYHAMGWYRHAPGKEREFVAAISQGGGSTYYADSVKGRFTISRDNAKKTVSLQMISLKPEDTAVYYCAADYRSGYREMDYWGQGTQVTVSS,low polyreactivity
6,QVQLVESGGGLVQAGGSLRVSCAPSGRTFSWYAMGWYRQAPGKEREFVAAIRWSGSSTYYADSVKGRFTISRDNAKNTVYLHMNSLKPEDTAVYYCAVAAGIPQRRYYYWGHGTQVTVSS,high polyreactivity
7,QVQLVESGGGLVQAGGSLRVSCDASGFTFFYNAMGRYRQAHGKERELVASISSVGRTNYADSVKGRFRISRDNAKNTVYLQMNSLTPEDTAVYFCAAYRAPATRRRGYYYWGLGTQVTVSS,high polyreactivity
8,QVQLVESGGGLVQAGGSLRVSWAACGSTFYGYGMGWYRQAPWKERELVAAITGSGDTTYYADSVKGRFTISRDNAKNTVYLQMNSLKPEDTAVYYCAADASSKLYEYWGQGTQVTVSS,low polyreactivity
9,QVQLVESGGGLVQAGGSLSLICAASGRILSGNAMVWYRQAPGKERELVAAITNAGITKYAVSVKGRFTISRDNAKNTVYLQMNSLKPEHTEVYYCASDRYAYKLYDYWGQGTQVTVSS,low polyreactivity
10,QVQLVESGGGLVQAGGSLSLICAASGRIYPKYAMGWYRQAPGKERELVAGITKRVGSTYYADSVKGRFTISRDNAKHTVYLQMTSLKPEDTAGYYCAKRWVSGPHGYWGQGTQVTVSS,low polyreactivity
11,QVQLVESGGGLVQAGGSLSLICAASGSTLATYTMGGYRQAPGKERELVAAISFGGSTYYADSVKGRYTISRDNAKNTVYLQMISLKPEDTAVYYCAVYGDSYWGAYYYSDGYWGQGTQVTVSS,low polyreactivity
12,QVQLVESGGGLVQAGGSLSLRFAASGFIFYRYAMGWYRQAPWKERELVAAITRSVTSTYYADSVKGRFTISRDNAKNTVYLQMNSLKPEDTAVYYCILRSRYDYYYWGQGTQVTVSS,high polyreactivity
13,QVQLVESGGGLVQAGGSLSLSCAAMGWYRQAPGKERELVATITWSGGSTYYADSVKGRFTISRDNAKNPVYLQMNSLKPEDTAVYYCNARATLLSPANTIRGYDYWGQGTQVTVSS,low polyreactivity
14,QVQLVESGGGLVQAGGSLSLSCAASGFIFHFNAMGWYIQAPGKEREVVAAISRTGGTTYYADSVKGRFTLSRDNAKNTVYLQMNSLKPEVTAVYYCAAYSTYGQHYDYWGQGTQVTVSS,high polyreactivity
15,QVQLVESGGGLVQAGGSLSLSCAASGFIFPRYTMGWYRQAPGKERELVAAMTSSGGTNYADSVKGRFTISRDNAKNTVYLQMNSLKPEDTAVYYCAARRRTQQGYGGGYWGQGTQVTVSS,high polyreactivity
16,QVQLVESGGGLVQAGGSLSLSCAASGFIFVPYAMGLSRQAPGKERELVARITWSGGRTYYADSVKGRFTISRDNAKNTVYLQLNSLKPEDTAVYYCNADVYGFDYWGQGTQVTVSS,high polyreactivity
17,QVQLVESGGGLVQAGGSLSLSCAASGFTLGYYAMGWYRQAPGKERELVAAITSGGGTNYADSVKGRFTISRDNAKNTVYLQMNSLKPEDTAVYYCAARARWIYGMYSWGQGTQVTVSS,low polyreactivity
18,QVQLVESGGGLVQAGGSLSLSCAASGGIFAANAMGWYRQAPGKERELVAAITRRGGSTTYADSVKGRFTISRDNAKNTVYLQMNRLKREDTAVYYCNTVYYRFYIELYFSSYDYWGQGTQVTVSS,high polyreactivity
19,QVQLVESGGGLVQAGGSLSLSCAASGITFGLYTLGWYRQAPGKERELVASISQSGGSTYYADSVKGRFTNSRDNAKNTVYLQMNSQKQEDTAVYYCNARRRFWDFSTRGYDSWGQGTQGTVSS,high polyreactivity
20,QVQLVESGGGLVQAGGSLSLSCAASGLTFKWNAMGWYRQAPGKEREFVAANTKRAGSTYYADSVKGRFTISRDNAKNTVYIQMNSLKPEDTAVYYCAADDGYFYARYDYWGQGTQVTVSS,low polyreactivity
